Data on one protein can be found in patent US20250051735A1 (VANDERBILT UNIVERSITY, published 2025).

This data set deals with the molecule itself. The data set is described as follows: sedimentation velocity analytical ultracentrifugation (self-association). On the procedure: Sedimentation velocity data were collected at 50,000 rpm and 20° C. on a Beckman Coulter ProteomeLab XL-I analytical ultracentrifuge following standard protocols (Zhao, H., et al. Curr Protoc Protein Sci, 2013 Chapter 20, Unit20 12). 2-channel, 12 mm centerpiece cells were used, and sedimentation was monitored with the absorbance (280 nm) and Rayleigh interference (655 nm) detection systems. A continuous c(s) distribution of Lamm equation solutions, as implemented in SEDFIT (Schuck, P. Biophys J 2000 78:1606-1619), modeled the sedimentation data. […] (Cole, J. L., et al. Methods Cell Biol 2008 84:143-179) provided the solution densities ρ, solution viscosities η, and protein partial specific volumes required for the analysis.
The N-terminus is required for transposase dimerization prior to transposon end binding. Although an attempt was made to explore the role of the piggyBac transposase N-terminus using purified proteins, no soluble N-terminally truncated transposases was recovered under conditions successfully used for the WT transposase in EXPI293F cells (Chen, Q., et al. Nat Commun, 2020 11:3446). To circumvent this, a TEV protease cleavage site was introduced between resides 74 and 75 which allowed expression and purification of a full-length protein and then proteolytical removal of the first 74 amino acids.

B1: PB74-539 transposase generated by proteolytic cleavage (TEV-cleaved TEVΔ74PB1-539) (enzyme)
chain: GSSLASNRILTLPQRTIRGKNKHCWSTSKSTRRSRVSALNIVRSQRGPTRMCRNIYDPLLCFKLFFTDEIISEIVKWTNAEISLKRRESMTGATFRDTNEDEIYAFFGILVMTAVRKDNHMSTDDLFDRSLSMVYVSVMSRDRFDFLIRCLRMDDKSIRPTLRENDVFTPVRKIWDLFIHQCIQNYTPGAHLTIDEQLLGFRGRCPFRMYIPNKPSKYGIKILMMCDSGTKYMINGMPYLGRGTQTNGVPLGEYYVKELSKPVHGSCRNITCDNWFTSIPLAKNLLQEPYKLTIVGTVRSNKREIPEVLKNSRSRPVGTSMFCFDGPLTLVSYKPKPAKMVYLLSSCDEDASINESTGKPQMVMYYNQTKGGVDTLDQMCSVMTCSRKTNRWPMALLYGMINIACINSFIIYSHNVSSKGEKVQSRKKFMRNLYMSLTSSFMRKRLEAPTLKRYLRDNISNILPNE
Consider B1, for which the binding result is listed as “no binding”.
